Several values for one entry are separate records, joined by “and”; a condition that tells them apart may be missing. Identical values can stand only once.
Target: mucin (purified mucins)
Experiment: AFM force spectroscopy

modal adhesion force: 105 pN
modal adhesion force (bimodal): 72 pN and 120 pN
Substance: SRRP_(53608)-BR, binding region of the serine-rich repeat protein from Lactobacillus reuteri ATCC 53608 (domain or fragment)
